Assay: anti-FLAG western blot, 293T cells
Conditions: glycan lost; control: WT-TWSG1 adenovirus

B1: twisted gastrulation (TWSG1): N80Q/N146Q (protein)
parent chain: MKSHYIVLALASLTFLLCLPVSQSCNKALCASDVSKCLIQELCQCRPGEGNCPCCKECMLCLGALWDECCDCVGMCNPRNYSDTPPTSKSTVEELHEPIPSLFRALTEGDTQLNWNIVSFPVAEELSHHENLVSFLETVNQLHHQNVSVPSNNVHAPFPSDKERMCTVVYFDDCMSIHQCKISCESMGASKYRWFHNACCECIGPECIDYGSKTVKCMNCMF
  expression_or_secretion: no change
